# Results published in US20110118131A1 (published 2011).
# Biological target: T1, IL-1beta (UniProt P01584 117-269)
# T1 construct: also called IL-1β
# Assay: Biacore
Binder,fold difference in affinity vs parental [fold],binding result
"XPA23 Fab, heavy chain V50N (Fab, V domains shown) VH: EVQLLESGGGLVQPGGSLRLSCAASGFTFSKYFMFWVRQAPGKGLEWVSNISPSGGMTRYADSVKGRFTISRDNSKNTLYLQMNSLRAEDTAVYYCARVGYGGNSDYWGQGTLVTVSS VL: DIQMTQSPSSVSASVGDRLTIICRASQDINRWLAWYQQTPGNAPKLLIHSATSLQSGVPSRFSGSGSGTDFTLTINSLQPEDFATYYCQQADSFPLTFGGGTKVEIK",0.03,–
"XPA23 Fab, heavy chain D106R (Fab, V domains shown) VH: EVQLLESGGGLVQPGGSLRLSCAASGFTFSKYFMFWVRQAPGKGLEWVSVISPSGGMTRYADSVKGRFTISRDNSKNTLYLQMNSLRAEDTAVYYCARVGYGGNSRYWGQGTLVTVSS VL: DIQMTQSPSSVSASVGDRLTIICRASQDINRWLAWYQQTPGNAPKLLIHSATSLQSGVPSRFSGSGSGTDFTLTINSLQPEDFATYYCQQADSFPLTFGGGTKVEIK",0.06,–
"XPA23 Fab, heavy chain D106K (Fab, V domains shown) VH: EVQLLESGGGLVQPGGSLRLSCAASGFTFSKYFMFWVRQAPGKGLEWVSVISPSGGMTRYADSVKGRFTISRDNSKNTLYLQMNSLRAEDTAVYYCARVGYGGNSKYWGQGTLVTVSS VL: DIQMTQSPSSVSASVGDRLTIICRASQDINRWLAWYQQTPGNAPKLLIHSATSLQSGVPSRFSGSGSGTDFTLTINSLQPEDFATYYCQQADSFPLTFGGGTKVEIK",0.04,–
"XPA23 Fab, heavy chain D106N (Fab, V domains shown) VH: EVQLLESGGGLVQPGGSLRLSCAASGFTFSKYFMFWVRQAPGKGLEWVSVISPSGGMTRYADSVKGRFTISRDNSKNTLYLQMNSLRAEDTAVYYCARVGYGGNSNYWGQGTLVTVSS VL: DIQMTQSPSSVSASVGDRLTIICRASQDINRWLAWYQQTPGNAPKLLIHSATSLQSGVPSRFSGSGSGTDFTLTINSLQPEDFATYYCQQADSFPLTFGGGTKVEIK",0.07,–
"XPA23 Fab, heavy chain D106E (Fab, V domains shown) VH: EVQLLESGGGLVQPGGSLRLSCAASGFTFSKYFMFWVRQAPGKGLEWVSVISPSGGMTRYADSVKGRFTISRDNSKNTLYLQMNSLRAEDTAVYYCARVGYGGNSEYWGQGTLVTVSS VL: DIQMTQSPSSVSASVGDRLTIICRASQDINRWLAWYQQTPGNAPKLLIHSATSLQSGVPSRFSGSGSGTDFTLTINSLQPEDFATYYCQQADSFPLTFGGGTKVEIK",0.04,–
"XPA23 Fab, heavy chain F33D (Fab, V domains shown) VH: EVQLLESGGGLVQPGGSLRLSCAASGFTFSKYDMFWVRQAPGKGLEWVSVISPSGGMTRYADSVKGRFTISRDNSKNTLYLQMNSLRAEDTAVYYCARVGYGGNSDYWGQGTLVTVSS VL: DIQMTQSPSSVSASVGDRLTIICRASQDINRWLAWYQQTPGNAPKLLIHSATSLQSGVPSRFSGSGSGTDFTLTINSLQPEDFATYYCQQADSFPLTFGGGTKVEIK",0.92,–
"XPA23 Fab, heavy chain F33K (Fab, V domains shown) VH: EVQLLESGGGLVQPGGSLRLSCAASGFTFSKYKMFWVRQAPGKGLEWVSVISPSGGMTRYADSVKGRFTISRDNSKNTLYLQMNSLRAEDTAVYYCARVGYGGNSDYWGQGTLVTVSS VL: DIQMTQSPSSVSASVGDRLTIICRASQDINRWLAWYQQTPGNAPKLLIHSATSLQSGVPSRFSGSGSGTDFTLTINSLQPEDFATYYCQQADSFPLTFGGGTKVEIK",0.85,–
"XPA23 Fab, heavy chain F33N (Fab, V domains shown) VH: EVQLLESGGGLVQPGGSLRLSCAASGFTFSKYNMFWVRQAPGKGLEWVSVISPSGGMTRYADSVKGRFTISRDNSKNTLYLQMNSLRAEDTAVYYCARVGYGGNSDYWGQGTLVTVSS VL: DIQMTQSPSSVSASVGDRLTIICRASQDINRWLAWYQQTPGNAPKLLIHSATSLQSGVPSRFSGSGSGTDFTLTINSLQPEDFATYYCQQADSFPLTFGGGTKVEIK",0.97,–
"XPA23 Fab, heavy chain F33E (Fab, V domains shown) VH: EVQLLESGGGLVQPGGSLRLSCAASGFTFSKYEMFWVRQAPGKGLEWVSVISPSGGMTRYADSVKGRFTISRDNSKNTLYLQMNSLRAEDTAVYYCARVGYGGNSDYWGQGTLVTVSS VL: DIQMTQSPSSVSASVGDRLTIICRASQDINRWLAWYQQTPGNAPKLLIHSATSLQSGVPSRFSGSGSGTDFTLTINSLQPEDFATYYCQQADSFPLTFGGGTKVEIK",0.86,–
"XPA23 Fab, heavy chain D106Q (Fab, V domains shown) VH: EVQLLESGGGLVQPGGSLRLSCAASGFTFSKYFMFWVRQAPGKGLEWVSVISPSGGMTRYADSVKGRFTISRDNSKNTLYLQMNSLRAEDTAVYYCARVGYGGNSQYWGQGTLVTVSS VL: DIQMTQSPSSVSASVGDRLTIICRASQDINRWLAWYQQTPGNAPKLLIHSATSLQSGVPSRFSGSGSGTDFTLTINSLQPEDFATYYCQQADSFPLTFGGGTKVEIK",0.02,–
"XPA23 Fab, heavy chain D106H (Fab, V domains shown) VH: EVQLLESGGGLVQPGGSLRLSCAASGFTFSKYFMFWVRQAPGKGLEWVSVISPSGGMTRYADSVKGRFTISRDNSKNTLYLQMNSLRAEDTAVYYCARVGYGGNSHYWGQGTLVTVSS VL: DIQMTQSPSSVSASVGDRLTIICRASQDINRWLAWYQQTPGNAPKLLIHSATSLQSGVPSRFSGSGSGTDFTLTINSLQPEDFATYYCQQADSFPLTFGGGTKVEIK",0.02,–
"XPA23 Fab, heavy chain D106S (Fab, V domains shown) VH: EVQLLESGGGLVQPGGSLRLSCAASGFTFSKYFMFWVRQAPGKGLEWVSVISPSGGMTRYADSVKGRFTISRDNSKNTLYLQMNSLRAEDTAVYYCARVGYGGNSSYWGQGTLVTVSS VL: DIQMTQSPSSVSASVGDRLTIICRASQDINRWLAWYQQTPGNAPKLLIHSATSLQSGVPSRFSGSGSGTDFTLTINSLQPEDFATYYCQQADSFPLTFGGGTKVEIK",0.03,–

# Further lines, results first:
fold difference in affinity vs parental [fold],binding result,Binder
0.73,–,"XPA23 Fab, heavy chain F33S (Fab, V domains shown) VH: EVQLLESGGGLVQPGGSLRLSCAASGFTFSKYSMFWVRQAPGKGLEWVSVISPSGGMTRYADSVKGRFTISRDNSKNTLYLQMNSLRAEDTAVYYCARVGYGGNSDYWGQGTLVTVSS VL: DIQMTQSPSSVSASVGDRLTIICRASQDINRWLAWYQQTPGNAPKLLIHSATSLQSGVPSRFSGSGSGTDFTLTINSLQPEDFATYYCQQADSFPLTFGGGTKVEIK"
–,no binding,"XPA23 Fab, heavy chain D106W (Fab, V domains shown) VH: EVQLLESGGGLVQPGGSLRLSCAASGFTFSKYFMFWVRQAPGKGLEWVSVISPSGGMTRYADSVKGRFTISRDNSKNTLYLQMNSLRAEDTAVYYCARVGYGGNSWYWGQGTLVTVSS VL: DIQMTQSPSSVSASVGDRLTIICRASQDINRWLAWYQQTPGNAPKLLIHSATSLQSGVPSRFSGSGSGTDFTLTINSLQPEDFATYYCQQADSFPLTFGGGTKVEIK"
–,no binding,"XPA23 Fab, heavy chain F33H (Fab, V domains shown) VH: EVQLLESGGGLVQPGGSLRLSCAASGFTFSKYHMFWVRQAPGKGLEWVSVISPSGGMTRYADSVKGRFTISRDNSKNTLYLQMNSLRAEDTAVYYCARVGYGGNSDYWGQGTLVTVSS VL: DIQMTQSPSSVSASVGDRLTIICRASQDINRWLAWYQQTPGNAPKLLIHSATSLQSGVPSRFSGSGSGTDFTLTINSLQPEDFATYYCQQADSFPLTFGGGTKVEIK"
–,no binding,"XPA23 Fab, heavy chain D106Y (Fab, V domains shown) VH: EVQLLESGGGLVQPGGSLRLSCAASGFTFSKYFMFWVRQAPGKGLEWVSVISPSGGMTRYADSVKGRFTISRDNSKNTLYLQMNSLRAEDTAVYYCARVGYGGNSYYWGQGTLVTVSS VL: DIQMTQSPSSVSASVGDRLTIICRASQDINRWLAWYQQTPGNAPKLLIHSATSLQSGVPSRFSGSGSGTDFTLTINSLQPEDFATYYCQQADSFPLTFGGGTKVEIK"
–,no binding,"XPA23 Fab, heavy chain D106F (Fab, V domains shown) VH: EVQLLESGGGLVQPGGSLRLSCAASGFTFSKYFMFWVRQAPGKGLEWVSVISPSGGMTRYADSVKGRFTISRDNSKNTLYLQMNSLRAEDTAVYYCARVGYGGNSFYWGQGTLVTVSS VL: DIQMTQSPSSVSASVGDRLTIICRASQDINRWLAWYQQTPGNAPKLLIHSATSLQSGVPSRFSGSGSGTDFTLTINSLQPEDFATYYCQQADSFPLTFGGGTKVEIK"
0.79,–,"XPA23 Fab, heavy chain F33W (Fab, V domains shown) VH: EVQLLESGGGLVQPGGSLRLSCAASGFTFSKYWMFWVRQAPGKGLEWVSVISPSGGMTRYADSVKGRFTISRDNSKNTLYLQMNSLRAEDTAVYYCARVGYGGNSDYWGQGTLVTVSS VL: DIQMTQSPSSVSASVGDRLTIICRASQDINRWLAWYQQTPGNAPKLLIHSATSLQSGVPSRFSGSGSGTDFTLTINSLQPEDFATYYCQQADSFPLTFGGGTKVEIK"
–,no binding,"XPA23 Fab, heavy chain F33R (Fab, V domains shown) VH: EVQLLESGGGLVQPGGSLRLSCAASGFTFSKYRMFWVRQAPGKGLEWVSVISPSGGMTRYADSVKGRFTISRDNSKNTLYLQMNSLRAEDTAVYYCARVGYGGNSDYWGQGTLVTVSS VL: DIQMTQSPSSVSASVGDRLTIICRASQDINRWLAWYQQTPGNAPKLLIHSATSLQSGVPSRFSGSGSGTDFTLTINSLQPEDFATYYCQQADSFPLTFGGGTKVEIK"
0.78,–,"XPA23 Fab, heavy chain F33Q (Fab, V domains shown) VH: EVQLLESGGGLVQPGGSLRLSCAASGFTFSKYQMFWVRQAPGKGLEWVSVISPSGGMTRYADSVKGRFTISRDNSKNTLYLQMNSLRAEDTAVYYCARVGYGGNSDYWGQGTLVTVSS VL: DIQMTQSPSSVSASVGDRLTIICRASQDINRWLAWYQQTPGNAPKLLIHSATSLQSGVPSRFSGSGSGTDFTLTINSLQPEDFATYYCQQADSFPLTFGGGTKVEIK"
0.77,–,"XPA23 Fab, heavy chain F33Y (Fab, V domains shown) VH: EVQLLESGGGLVQPGGSLRLSCAASGFTFSKYYMFWVRQAPGKGLEWVSVISPSGGMTRYADSVKGRFTISRDNSKNTLYLQMNSLRAEDTAVYYCARVGYGGNSDYWGQGTLVTVSS VL: DIQMTQSPSSVSASVGDRLTIICRASQDINRWLAWYQQTPGNAPKLLIHSATSLQSGVPSRFSGSGSGTDFTLTINSLQPEDFATYYCQQADSFPLTFGGGTKVEIK"
0.06,–,"XPA23 Fab, heavy chain F35D (Fab, V domains shown) VH: EVQLLESGGGLVQPGGSLRLSCAASGFTFSKYFMDWVRQAPGKGLEWVSVISPSGGMTRYADSVKGRFTISRDNSKNTLYLQMNSLRAEDTAVYYCARVGYGGNSDYWGQGTLVTVSS VL: DIQMTQSPSSVSASVGDRLTIICRASQDINRWLAWYQQTPGNAPKLLIHSATSLQSGVPSRFSGSGSGTDFTLTINSLQPEDFATYYCQQADSFPLTFGGGTKVEIK"
